Laboratory results from patent US20210040232A1 (Regeneron, published 2021).
Numbering of substitutions follows the chain as printed.

T1: soluble Macaca fascicularis CTLA-4 expressed with a C-terminal myc-myc-polyhistidine tag (Macaca fascicularis)
T1 construct: soluble protein; also called mf CTLA-4.mmh; mfCTLA4.mmh
T1 chain: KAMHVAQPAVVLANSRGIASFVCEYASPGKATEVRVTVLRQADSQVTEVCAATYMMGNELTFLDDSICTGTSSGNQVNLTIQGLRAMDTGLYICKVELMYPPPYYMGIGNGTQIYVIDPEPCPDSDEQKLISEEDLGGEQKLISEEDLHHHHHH

B1: H1H19327P2 (antibody, human IgG1, V domains shown)
VH: QVQLVESGGGVVQPGRSLRLSCAASGFTSSSYGIHWVRQAPGKGLEWVAVIWYDGSNKYYADSVKGRFTISRDNSKNTLYLQMNSLRAEDTAVYYCARGGPWGAFDIWGQGTMVTVSS
VL: not shown
B2: H1H19291P (antibody, human IgG1, V domains shown)
VH: QVQLVESGGGVVQPGRSLRLSCAASGFTFSTYGMHWVRQAPGKGLEWVTVIWYDGNNKYYADSVKGRFTISRDNSKNTLYLQMNNLRAEDTALYYCARGGGRLSYYHDYWGQGTLVTVSS
VL: DIQMTQSPSSLSASVGDRVTITCRASQSISTFLNWYQQKPGKAPNLLIYGTSSLQSGVPSRFSGSGSGTDFTLTISSLQPEDFAAYYCQQTYSTPFTFGPGTKVDIK
B3: H1H19294P (antibody, human IgG1, V domains shown)
VH: QVQLVQSGAEVKMSGASVRVSCKASGYTFTSYGISWMRQAPGQGLEWMGWITAYNGNSNYAQKLQGRVTMTTDTSTGTAYMELRSLTSDDTAVYYCARRGDYLGVFPYWGQGTLVTVSS
VL: B2 VL with T31S, F32Y, G50T, T51A, A85T, T91S, T94S, F96L, P100G, D105E
B4: H1H19284P (antibody, human IgG1, V domains shown)
VH: EVQLVESGGGLVQPGGSLRLSCAASGFTLSNYVMTWVRQAPGKGLEWVSAISGRGGNSYYADSVKGRFSISRDHSKNTLYLQVNSLRAEDTAVYYCAKAERGYSYGFNWFDPWGQGTLVTVSS
VL: DIQMTQSPSSVSASAGDRVTITCRASQGISSWLAWYQQKPGKAPKLLIYAASSLQSGVPSRFSGSGSGTDFTLTISSLQPEDFASYYCQQGNNFPLTFGGGTKVEIK
B5: H1H19319P2 (antibody, human IgG1, V domains shown)
VH: QVQLVESGGGEVQPGRSLRLSCAASGFTFSSYGMHWVRQAPGKGLEWVAVIWYDGRNKHYVDSVKGRFTISRDNSKNTVYLQMNSLRAEDSAVYYCVRGGQLGAFDYWGQGTLVTVSS
VL: not shown
B6: H1H19303P (antibody, human IgG1, kappa, V domains shown)
VH: EVQLVESGGGLVQPGGSLRLSCAASGFTFSNYEMSWVRQAPGKGLEWVSSIRTSGTTKYYADSMKGRFTISRDNAKNSLYLQMNSLRAEDTAVYYCAGGGTFLHYWGQGTLVTVSS
VL: DIQMTQSPSSVSASVGDRVTITCRASQGIASYLAWYQQKPGKAPKLLIYAASSLQTGVPSRFSGSGYGTDFTLTISSLQPEDFATYYCQQAKSFPMYTFGQGTKLEIKR
notes: also called REGN4659
B7: H1H19273P (antibody, human IgG1, V domains shown)
VH: QITLKESGPTLVKPTQTLTLTCTFSGFSLSTSGVGVGWIRQSPGRALEWLALIYWNDHERYSPSLKSRLTITKDTSKNLVVLAMANMDPVDTATYFCAHRNIEYRRSYFFDYWGQGTLVTVSS
VL: DIQMTQSPSSVSASVRDRVTVTCRASQDINNWLAWYQQKPGKAPKLLIYAASSLQSGVPSRFSGSGSGTDFTLTISSLQPEDFATYYCQQANTFPFTFGPGTKVDIK
B8: H1H19313P (antibody, human IgG1, V domains shown)
VH: QITLKESGPTLVKPTQTLTLTCTFSGFSLSTSGVGVGWIRQPPGVALEWLALIYWNDDKRFSPSLKSRLTITKDTSKNQVVLTMTNMDPVDTATYYCAHRRLGLYYFDYWGQGTLVTVSS
VL: DIQLTQSPSFLSASVGDRVTITCWASQGISSYLAWYQQKPGKAPKLLIYAASTLQSGVPSRFSGSGSGTEFTLTISSLQPEDFATYYCQQVHIYPFTFGPGTKVDIK
B9: H1H19283P (antibody, human IgG1, V domains shown)
VH: QVQLVESGGGLVKPGGSLRLSCAASGFTFSDYYMTWIRQAPGKGLEWVSYISSSGGNIFYADSVKGRFTISRDNAKNSLYLQMNSLRGEDTAVYYCARGLEPYHYYYGMDVWGQGTTVTVSS
VL: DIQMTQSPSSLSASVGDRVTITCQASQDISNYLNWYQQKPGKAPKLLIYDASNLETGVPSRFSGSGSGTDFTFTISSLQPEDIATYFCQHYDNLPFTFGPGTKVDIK

Biological target: T2, soluble human CTLA-4 expressed with a C-terminal myc-myc-polyhistidine tag (human)
T2 construct: soluble protein; also called hCTLA-4.mmh; hCTLA4.mmh
Assay: SPR, mAb capture, 25 C

Binder | Kd [nM] | koff [s⁻¹] | kon [M⁻¹ s⁻¹] | t1/2 [min]
B1 | 66.3 | 0.000585 | 8810 | 19.8
B2 | 13.8 | 0.00123 | 88800 | 9.4
B3 | 1.13 | 0.000323 | 285000 | 35.7
B4 | 2.49 | 0.000369 | 148000 | 31.3
B5 | 10.2 |  |  | 7.9
B6 | 16.4 | 0.00199 | 121000 | 5.8
B7 | 0.966 | 0.000362 | 374000 | 31.9
B8 | 1.55 | 0.000758 | 489000 | 15.2
B9 | 3.75 | 0.000828 | 221000 | 14

Biological target: T1, soluble Macaca fascicularis CTLA-4 …
Assay: SPR, mAb capture, 25 C

Binder | Kd [nM] | koff [s⁻¹] | kon [M⁻¹ s⁻¹] | t1/2 [min]
B1 | 62.4 | 0.0117 | 188000 | 1
B2 | 13 | 0.00121 | 93100 | 9.6
B3 | 1.02 | 0.000269 | 263000 | 43
B4 | 1.57 | 0.000305 | 194000 | 37.9
B5 | 12.9 |  |  | 4.4
B6 | 15.7 | 0.00245 | 156000 | 4.7
B7 | 0.956 | 0.000346 | 362000 | 33.4
B8 | 0.976 | 0.000464 | 475000 | 24.9
B9 | 3.11 | 0.000683 | 220000 | 16.9

Biological target: T3, hCTLA-4 extracellular domain (aa 1-161) fused to the trans-membrane and cytoplasmic domain of hCD300a (aa … (human, UniProt Q9UGN4 181-299))
T3 sequence (Q9UGN4 other isoform, or with tags, fused parts or gaps limits assumed, form in doubt): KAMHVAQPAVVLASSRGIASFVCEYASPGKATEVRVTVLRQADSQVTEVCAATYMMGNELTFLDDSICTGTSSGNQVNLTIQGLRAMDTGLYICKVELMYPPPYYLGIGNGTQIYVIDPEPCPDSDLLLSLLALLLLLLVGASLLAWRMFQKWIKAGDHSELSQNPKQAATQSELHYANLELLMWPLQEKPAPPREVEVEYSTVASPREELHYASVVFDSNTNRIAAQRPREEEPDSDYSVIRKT
Assay: cell-based or functional assay

Binder | EC50, T-cell/APC NFAT-luciferase assay, +Fc Block [nM] | EC50, T-cell/APC NFAT-luciferase assay, -Fc Block [nM]
B1 | 5.49 | 4.2
B2 | 3.92 | 2.36
B5 | 4.18 | 2.47
B6 | 1.73 | 1.61
B7 | 3.83 | 2.74
B8 | 3.47 | 1.69

Biological target: mf CTLA-4 extracellular domain (aa 1-161) fused to the trans-membrane and cytoplasmic domain of hCD300a (aa … (Macaca fascicularis; human, UniProt G7PL88 1-161; Q9UGN4 181-299)
Assay: cell-based or functional assay

Binder | EC50, T-cell/APC NFAT-luciferase assay, +Fc Block [nM]
B1 | 5.76
B2 | 7.67

Biological target: T3, hCTLA-4 extracellular domain (aa 1-161) …
Assay: cell-based or functional assay
Remark: another data set of the same source

Binder | EC50, T-cell/APC IL-2 release assay, APC HEK293/hCD20/hCD80 [nM] | Fold induction of IL-2 at 100 nM, APC HEK293/hCD20/hCD80 [fold]
B6 | 40.9 | 5.4
B7 | 33.3 | 5.1
B8 | 21.9 | 5.7

Biological target: T4, human CTLA-4 (amino acids M1-N223) on stably transfected VI-fibroblast cells (human, UniProt P16410 36-223)
T4 construct: also called VI-fibroblast/hCTLA-4
T4 sequence (P16410 36-223 limits assumed): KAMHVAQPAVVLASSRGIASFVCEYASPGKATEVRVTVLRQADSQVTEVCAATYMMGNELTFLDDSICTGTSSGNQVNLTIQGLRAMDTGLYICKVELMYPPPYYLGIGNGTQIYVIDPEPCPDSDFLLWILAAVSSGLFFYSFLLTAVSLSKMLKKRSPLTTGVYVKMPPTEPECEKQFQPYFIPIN
Assay: ECL cell binding, VI-fibroblast/hCTLA-4 cells;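 further: antibodies bound to the cells on carbon electrode plates, detected via SULFO-TAG anti-IgG secondary (1 h, RT), electrochemiluminescence read as RLU over a concentration range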

Binder | EC50 [nM] | ratio of RLU signal to parental VI-fibroblast at 0.4 nM Ab [ratio]
B1 | 0.29 | 16
B2 |  | 5
B3 | 0.68 | 10
B4 |  | 7
B5 | 0.24 | 
B6 | 0.21 | 20
B7 |  | 11
B8 | 0.16 | 11
B9 | 0.79 | 7

Biological target: T3, hCTLA-4 extracellular domain (aa 1-161) …
Assay: ECL cell binding, Jurkat/NFAT-Luc/hCTLA-4-hCD300a cells

Binder | EC50 [nM]
B5 | 0.28
B6 | 0.29
B7 | 0.52
B8 | 0.11

Biological target: T5, recombinant hCTLA-4-mFc (human CTLA-4 extracellular domain with a C-terminal Fc portion of mouse IgG2a) (human)
T5 construct: also called dimeric CTLA-4 protein
T5 sequence (chain, as listed by the source limits assumed): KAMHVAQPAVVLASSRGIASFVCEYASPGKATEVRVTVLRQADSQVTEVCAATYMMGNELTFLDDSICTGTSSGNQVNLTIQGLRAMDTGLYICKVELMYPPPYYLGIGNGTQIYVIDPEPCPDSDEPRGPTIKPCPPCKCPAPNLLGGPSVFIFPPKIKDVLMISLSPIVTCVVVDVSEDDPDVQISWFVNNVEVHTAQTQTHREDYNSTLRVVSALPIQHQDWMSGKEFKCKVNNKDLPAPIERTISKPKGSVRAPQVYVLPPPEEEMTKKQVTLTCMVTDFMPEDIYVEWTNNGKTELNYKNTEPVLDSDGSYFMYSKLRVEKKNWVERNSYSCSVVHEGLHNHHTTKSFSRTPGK
Assay: competition ELISA, 200 pM hCTLA-4-mFc on plate-coated hB7-1-hIgG1-6His

Binder | % Blockade [%] | IC50 [nM]
B1 | 7 | 
B2 | 98 | 2
B3 | 99 | 0.15
B4 | 98 | 0.17
B5 | 85 | 320
B6 | 90 | 180
B7 | 98 | 0.25
B8 | 98 | 0.4
B9 | 96 | 9.7

Biological target: T5, recombinant hCTLA-4-mFc (human CTLA-4 …)
Assay: competition ELISA, 400 pM hCTLA-4-mFc on plate-coated hB7-2-hIgG1-6His

Binder | % Blockade [%] | IC50 [nM]
B1 | 38 | 
B2 | 99 | 2.5
B3 | 99 | 0.25
B4 | 99 | 0.31
B5 | 97 | 43
B6 | 97 | 39
B7 | 98 | 0.54
B8 | 99 | 0.77
B9 | 99 | 1.2
